{
  "source": "patent US9199028B2",
  "about": "“Use of entrained neutrophils to treat metastatic and micrometastatic disease in at risk patients” (MEMORIAL SLOAN-KETTERING CANCER CENTER, priority 2010, dated 2015)",
  "system": "MDA-MB-231 cells",
  "test": "In vitro killing assay: human neutrophils co-cultured with luciferase labelled MDA-MB-231 cells",
  "type": "cell-based",
  "conditions": "naïve human neutrophils:tumor cells 1:1, chemokine 100 ng/ml (rhG-CSF 20 ng/ml), overnight",
  "from_the_text": "Luciferase is under a constitutive promoter so cell death results in a decrease in luciferase activity because there is no transcription/translation of the lucierferase gene. The assay itself requires lysing of the cell to release the luciferase to mix with the luciferin and measure the luminescence. But it isn't that they dying cell releases luciferase. More signal means more luciferase which means more live cells. […]. […] Nave human neutrophils were co-cultured with MDA-MB-231 cells. […] Cells were seeded at a ratio of human neutrophils:human tumor cells=1:1.\nAntibodies used for immunohistochemistry—MMP9, F4/80 and CCR2 (all from AbCam), Myeloperoxidase (Dako), Ly-6G and Cd11b (both from BD), and Cleaved Caspase 3 (Cell signalling). Antibodies used for western blotting—Actin (Sigma), CCL2 (AbCam) and CCL5 (R&D) p-SMAD2 (cell signalling). Antibodies used for FACS analysis FITC-Ly-6G, FITC-Cd11b, FITC-F4/80, FITC-Cd34 and FITC-c-Kit (all from BD) and VEGFR1-AP (R&D). Neutrophil Depletion Neutrophil depletion was achieved using daily IP injections of 12.5 μg Rat anti-Gr-1 antibody (BD) or Rat anti-Ly-6G antibody (BD) starting on day 3 post tumour engraftment. Starting on day 14, neutrophil depleting antibodies were administered twice daily. Control mice were injected with […] Rat isotype control (BD). Neutrophil depletion was monitored by manual blood differentials and FACS analysis. Flow Cytometry Peripheral blood was collected into EDTA-coated tubes, washed and resuspended in FACS buffer solution (PBS, 2% heat-inactivated FCS, 5 mM EDTA, and 0.02% sodium azide). The samples were blocked with […] and then incubated with fluorophore-conjugated antibodies. Erythrocytes were then lysed with FACS lysing solution (BD Biosciences) and the cell suspensions were analyzed on a FACSCalibur (BD Biosciences). Colony Formation Assay Female nude mice were orthotopically injected with 5×10^6 puromicin resistant 4T1 cells. On days 7 and 14 post tumour engraftment the mice were sacrificed and perfused with PBS. The lungs and livers were removed, washed with PBS and dissociated with Collagenase A (Roche). The single cell suspension was then plated onto puromicin containing media and selected for 14 day. Colonies were stained with Methylene-Blue and counted manually. Mouse Neutrophil Purification Whole blood was collected by cardiac puncture using heparinized (Sigma) syringe. The blood was diluted with 5 volumes of PBS containing 0.5% BSA and subjected to a discontinuous Histopaque (Sigma) gradient (1.077 and 1.119). Neutrophils were collected from the 1.077-1.119 interface, lymphocytes and monocytes collected from the plasma-1.077 interface. RBCs were eliminated by hypotonic lysis. The cells were washed twice with PBS-BSA and re-suspended in OptiMEM (Invitrogen) 0.5% FBS in a final concentration of 2×10^6 cells/ml. Neutrophil purity and viability were determined visually and were consistently >98%. Human Neutrophil Purification As part of a Memorial Sloan-Kettering Cancer Center institutionally approved protocol, blood samples (˜10 cc) were collected from healthy volunteers or from patients who were already having blood drawn for pre-surgical testing. Patients were consented accordingly as part of the approved protocol. […] Patients had either mastectomies or lumpectomies planned and had blood drawn prior to definitive surgical removal of their primary tumor or chemotherapy. Blood samples were transferred to the lab for analysis no more than 1 hour post-blood draw. Heparinzed blood (20 U/ml final) was mixed with an equal volume of Dextran 500 (3% in saline) and incubated 30 minutes at room temperature. The leukocyte-rich supernatant was layered on top of histopaque 1077 (Sigma) and centrifuged. Neutrophils, collected in the pellet fraction, were resuspended in 10 ml 0.2% NaCl for 30 seconds to remove contaminating erythrocytes. Isotonicity was restored by the addition of 10 ml 1.6% NaCl. […]",
  "data": [
    {"molecule": "rhG-CSF: recombinant methionyl human granulocyte colony-stimulating factor (Neupogen, Amgen) (protein, chains of the INN, looked up, N-terminal methionine) MTPLGPASSLPQSFLLKCLEQVRKIQGDGAALQEKLCATYKLCHPEELVLLGHSLGIPWAPLSSCPSQALQLAGCLSQLHSGLFLYQGLLQALEGISPELGPTLDTLQLDVADFATTIWQQMEELGMAPALQPTQGAMPAFASAFQRRAGGVLVASHLQSFLEVSYRVLRHLAQP", "values": [
      {"measurement": "neutrophil cytotoxicity / neutrophil mediated killing of MDA-MB-231 cells", "result": "does not induce neutrophil mediated cell killing"}
    ]}
  ]
}
